Laboratory results reported in the DeepSol protein solubility set.

Assay: soluble on expression in E. coli; label from the status in PepcDB or PDB records

| Sequence | soluble on expression in E. coli |
| --- | --- |
| MGSDKIHHHHHHMQDLVQAYKEEKNARIKERILAVKLHVVDGKSEKEVSKMLNKGYSTIKLWIGKYKKEGLDGLKDKPRSGRPRKVEEEKIKQILEDKPQKYGIQQEYWTMKTLKIALQEQGIEYKKSRLYELVHELGYNLVKPRPTNIQAEKDKWEDFKKIKKLERKALFFLDECRTVISTSIKKVLAKVGSKPVMRVNIGFSSIYVILAINAWTGEVVVSLAKRPNSESVKYFLRYFKRRVGSGRVYMVMDNYSPHKTKGTLEVCRRKGIHPVFTPPYSPELNMAEAVFKSLKNYMSNKIFYTIEDVKNCIKQFFEENKYRFNLNAITYLGLDKIEV | not soluble |
| MTNFATTDDVILLWRQLSVDEIKRAEALLETVSDTLRLEASKVGKNLDEMILETPYFATVLKSVTVDIVARTLMTATQGEPMSQESQSALGYTWSGTYLVPGGGLFIKDSELKRLGLKKQRYGGIELYGEIERNNSYFSRQDD | not soluble |
| MSLRPRMIDWLQARNIGVAVSQSYLAPVVDRAARQEQYRRMVQRSEPLISAYMGVRLPQPIDRIYVFDRAEWIEANLAAFQSLFAPLEELYDEVSARQGMVGILIGQLNSQLIGMQVGALIGFLARRVLGQYDLGLLSPDPDLRGALYFVEPNIARICAQLGLNGDDFRMWIALHETTHVFEFEAFPWVRAYFQDLLRQFIGRVNDQAAMLSVGIVRLIERLLQGQPIDHHWIELMLTPEQREIFTRMQALMSVVEGYSNHIMNAIGAQLLPSYPSIEARVRQRQLRRPLIEEAFNRITGMDLKLAQYQQGEAFINAVVAACGADFANRIWERPENLPTMDEIRAPHRWIARMSGEGHHHHHH | soluble |
| SNKDLVHIGVLQYVEHPSLSATRKGFIEELKEEGYVDGKNIKIDYQNAQGDQSNLQTISQSLIEDNDVMLAIATPAAQSLSSLTKGKPILFTAVTDPVSAKLVKSMDNVGGNVTGTSDMSPINKQVELLKKVFPNTKKVGIMYTTSERNSEVQVEEAKKYFKEAGIETVIKGISSTNDIQDTAKSLMSQTEVIFIPTDNTIVSAINTLVDLSKETKVPVVGSDAGSVEKGVLFTYGTNYEALGRQTGKLAGRVLRGEKVKDIDAEYPKTLNVVVNHDMAKKLGIDVSSISDEESKVSTKDDKPIAK | not soluble |
| MVTVPDAIKGSSPTPQQDLVRVMSAPQLYVGQEARFGGKVVAVQNQQGKTRLEIATVPLDSGARPTLGEPSRGRIYADVNGFLDPVDFRGQLVTVVGPITGAVDGKIGNTPYKFMVMQVTGYKRWHLTQQVIMPPQPIDPWFYGGRGWPYGYGGWGWYNPGPARVQTVVTELEHHHHHH | soluble |
| MAHHHHHHMLHGNWKYLRQGGRQWMEKQARDPFVLEARRRGYVARSAFKLLEMDDKFGLFARNHTRVVVDIGCSPGGWLQVARERCGDRCALFGVDLLHVSPTVTGAVCIQGDFTDMAIQQQLLSRMENVHANGLVDVVMSDMCLNRGSGGTDDRQKQMQLNMEALAFATSQLRTGGNFVCKVLGTPTAFEELRGELQRWFVRSSLCKPFSSRRGSDEAFMVCLAKRETPRPRGCNIAEGETRDFGLDDWPGFLRRPRQKR | not soluble |
| MGRYKDETPAVRVYTVCDESRYMIVRNVPALGCGDDLMRLFMTYGEVEEFAKRKLDESSFLGNRLQISYAPEYENVNDTKDKLESRRKEVLARLNPQKEKSTSQVTKLAGPALTQTDNVSSQRREMEYQFHRGNAPVTRVSSDQEYFASSSMNQTVKTVREKLNKTREENISSLSHCKQIEESGNQKRLQPSSQTQPEESGNQKRLQPSSQIQPDLKRTRVDNRRRI | not soluble |
| MSLANSKVYAIPTTCNSGIFVGRAENLDAIDIMKDPNYTGKVSIVGFDVANCSDNNSDDNHKNHNETAIGNGPTPKWHNSNYTSDFLNVAQQGKDTMISATLPNPVPSQEIGSVGQIAYGSQISDADFKELASVDIKNINQSSPYFVRNYGQMVSKLGDIIEKYHTELMDSNGNATIYLRPFHEMNSPWLWWGFKNQDDFKNLWIHLHNYLVNDRKFTWLKFCFAASAGDPSLDPAHVKGANSYYPGNNYVDTVALDGYSDDPSNDSGIKKQYAELTATGKPFGFAELGAKVDGDFVNVPNERTQQNVETRPFNYQKWSDAIQKYYSNAKYCIVFGGAYDPRNNLHGTSLFSNEGHHHHHH | soluble |
| MSTQKRAIAKTDMLKFTETSQPIGQKKYVELSKDIFIFSYLCGGINFTDIANLTQENIVNGRLHYIRQKTGKLIKIGIPQEAMQIIKKYTDESNGYLFPILNVKVHKTALQKQNRIHKIRGKVNDILKTLGKRLGIEANITTYVARHSFASVLKKSGVNIALISEALGHSDLATTQIYLDSFDNEQVDEAMKNLLEHHHHHH | not soluble |
| MATLFIADLHLCAEEPAITAGFLRFLAGEARKADALYILGDLFEAWIGDDDPNPLHHQMAAAIKAVSDSGVPCYFIHGNRDFLLGKRFARESGMTLLPEEKVLELYGRRVLIMHGDTLCTDDAGYQAFRAKVHKPWLQTLFLALPLFVRKRIAARMRANSKEANSSKSLAIMDVNQNAVVSAMEKHQVQWLIHGHTHRPAVHELIANQQTAFRVVLGAWHTEGSMVKVTADDVELIHFPF | soluble |
| SAASGESGTSGGGGSTEEAFMTFYSEVKQIEKRDSVLTSKNQIERLTRPGSSYFNLNPFEVLQIDPEVTDEEIKKRFRQLSILVHPDKNQDDADRAQKAFEAVDKAYKLLLDQEQKKRALDVIQAGKEYVEHTVKERKKQLKKEGKPTIVEEDDPELFKQAVYKQTMKLFAELEIKRKEREAKEMHERKRQREEEIEAQEKAKREREWQKNFEESRDGRVDSWRNFQANTKGKKEKKNRTFLRPPKVKMEQRE | soluble |
| MAFNIESLLEKKSNPVEEGNDFEEENDSEKNGEEDEEEEEKNVIDGWTNMATSQLAMFAIANDLRTPTLVELQMLLGVSARKHDYKRSRKSVCERKPRQAYSARQLDRLETEFQTDKYLSVNKRIQLSQTLNLTETQIKTWFQNRRTKWKKQLTSSIRQMVKDAPTSTSVGVPFQSLLTPPTPPTTLACHVNSLFACEQ | not soluble |
| MAHHHHHHMAILYNRITGLKDSVYGEGLQCRILGLDEIKVFNIRIRPRVLKTMTGTKDLQMVNISLRVLFRPQTDRLPQIYREFGMDYDERILPSISNEILKAVVAEYKAEELIQKRDVVSARIYQLMQSKVSQFGLVLEDLSLVDIQFGKEFMVAVEQKQVAQQEAERFRYVVLENEQKRRAAVVRAEGEAESARLISEAIQRSGGGLLELRRIEAAVDIASKLIPMRNVTFLPGGSNMLLHMKSHQASEQAH | not soluble |
| MSDGSMDDDGRLFPDLGSSTHDNREIRVRFLNRCAYPVDVFWLNPSKQPTKYGTLAQKKYLDIKTFKDHPWVARRSFDGCKVLVNEKEVFWPEPAPRMNLIVRNHCVITMKVQSLREIAGRSFLRHNPTEVPNKIKGLPRELQFEVKHFLDRKQEYSEIVCRSIPPPGPQRPQQ | not soluble |
| MKIFLENLYHSDCYFLPIRDNQQVLVGVELITHFSSEDGTVRIPTSRVIAQLTEEQHWQLFSEQLELLKSCQHFFIQHKLFAWLNLTPQVATLLLERDNYAGELLKYPFIELLINENYPHLNEGKDNRGLLSLSQVYPLVLGNLGAGNSTMKAVFDGLFTRVMLDKSFIQQQITHRSFEPFIRAIQAQISPCCNCIIAGGIDTAEILAQITPFDFHALQGCLWPAVPINQITTLVQR | not soluble |
| MTESKTAIIFDMDGVLVDSEAYYYERRKAFLAEFDLTIEGLTLPELVGADMRSLWQKIEQVNKKELDIAFLNEQYIAYKKAHPIDYLAVLDENAKRVLQFLKRQGYKIGLASSSTKDAIEEVLTVGQLSSYFDAVVSGEDFEESKPAPDIYLHTLQELAVAPQECIAIEDSEKGIASAKEAGLEVWAMRDEHFGMDQSQADAFLTQLSDICKKISENRIDESSESTPS | not soluble |
| MSLENIEKIEVRGIRASNKANINEKRFSNAVVDAVTAEDIGKFPDSDVGQALGRVPGVTVGRTFGQGSSVSIRGTDPLMTLTTLNGQNVASTGWYDQMNVDRSFNYSMLPSELIGGMEVYKSTQANLVEGGIGGTVIVKTRKPLDMDANSVFASVKGEYGSVNEDVAPELSGLYSWKNDDETFGVLLAGSYIDREYLRTGTEADLDWGGRSSVQPSSFLQEQERTALDATVQFRPTDNLEFGAHVLSLKLGADSIGANMYIETDTNWGEGASHCKQFNAAGVCTLSVTPESDPSNVFFQNWARKGEMTSDTFELNADYKGDGFAISGVAGKTKAEGGTQMSANFGYGWWGDKFGQVKWAGTVDATGKQIDINGRDMGFTQDQLDTTVGTSTWTGIKGPNSDEETYLQLDVDFDLDFGVINKFETGVRYTQHEFEKSEYRAIYDPAKKNEFKTSDLYSGTMKLGYDGWTIPKADLDAMINATESLVDQFAYSRSAYGLIEEDNFSMYGMFSFDGEGFRGNFGLRYIQTDVTSSGHIIDNSPADILGVNQGWSEEIHSISDSYSDVLPSFNISFDLAPDLILRMSAGQAITRPNYDNLFLSTSTGYPDDRRGNEEITYGNPGLKPMKSSQADLSLEYYYGDGNLVSATYFIKDISNFIVATTQYNQQIGVVNNDLETPADNWTVNNYENAGGGEIDGIELQLNHAFENGFGVNANYTYADGTAPAEVYTDNIGMFTESSKHSANLVGYWENDDFSARAAYNWRSEYMVREYGKYYGNRMHDAFGTLDVTLGWNVTEAIALRLEIVNLTAEDDVQYGAAGVGTEVKPALQDDFPAWSFKGETTYKLGASFVFEGHHHHHH | not soluble |
| MGSDKIHHHHHHMKKVLGLVVSNRKLGNSEILVKEIINNIPEECNRELIRLTDLEIKPCKACYRCLQPNNACPVRDDFNFVIEKIREADALIIGVPVYFLGPHGYYKMLTDRLLGSQNYSQDTQGKPCIIVMPYGSEGWEGYSKIACMVMPKLLRMKLVDCWQIHASLPGESLLNPENISYARALGRELFNGREYHAESKECPICGSDLFRLINENQVECPICGSRGILKNNFSPDFSDSDYRRFSDHEMDEHFKGWLLEMKDRFSAEKNHLKELQKGYRNQNWWIKPCRLDEC | not soluble |
| PRRGAVAHANSIVQQLVSEGADISHTRNMLRNAMNGDAVAFSRVEQNIFRQHFPNMPMHGISRDSELAIELRGALRRAVHQQAAS | soluble |
| DISEELDYERGRYLDAMIDNHKYTGKARAIIYGQPELALALAKVCFENGVNVKLIALGAKNKILEEALKEEIKSQREEVLVLDDTDFDTIEKYAKEFNVNLFIGNSDGRRMASRLGIEIIRVGFPIHDRV | not soluble |
| GMSAKDVFHQVVKIALEKDGWQITNDPLTISVGGVNLSIDLGAEKLIAAEREGEKIAVEVKSFLERSSAISEFHTALGQFINYRGALRRRQPERVLYLAVPLTTYKTFFQLDFPKEMIAENQVKMLIYDVEQEVIFQWIN | soluble |
| MSLSELAVTEAEKGQDMIRSAVGEIKITNASLACYSWPRAQPIQNGLHTYVNVNIAITKIETDIGITGYGIGRNNPGENAIRHQFLSTMIGKDPTATAAVWAQLWSPKLYGRRGQETKALSSIDMALWDIKGKIAGMPIWRLLGGYRNRIPTYVAGGYYAKGKGLKDLQQEMANHVERGARGVKMKVGAVDIAEDVERINAVRKALGPDIKLMIDANCAYTYFDAIRLAKRVEEFDIYWFEEPVQPDDYEGFTKLSRATSIPLATGENEYTKHGFRDLIATQAISFLQPDARYMGGVTEFMKVAAMAEAHGLVICPHGDQQAHIQLLGAIPNAHLLEFYPKELNPMFGSVYKHTPDLNEDGTVTIPDVPGMATEPNEKMLERYRVAEGHHHHHH | soluble |
